Measured values reported in patent US20120294879A1, “CONSENSUS SEQUENCE FOR INFLUENZA A VIRUS” (priority 2009, published 2012).

Experiments:
[1] = molecular target: HLA-DR2 (DRB1*1501), chimeric DRA1*0101:I-Eα and DRB1*1501:I-Eβ, as expressed in HLA-DR2 transgenic mice (human; mouse) (UniProt Q8BHN5); assay: cell-based or functional assay
[2] = molecular target: HLA-B7 (B*0702), chimeric heavy chain with HLA-B*0702 α1 and α2 domains and H-2Kd murine α3 domain, (human; mouse), B*07:0; assay: cell-based or functional assay

UniProt Q8BHN5, sequence (Q8BHN5 whole entry, stated change not applied): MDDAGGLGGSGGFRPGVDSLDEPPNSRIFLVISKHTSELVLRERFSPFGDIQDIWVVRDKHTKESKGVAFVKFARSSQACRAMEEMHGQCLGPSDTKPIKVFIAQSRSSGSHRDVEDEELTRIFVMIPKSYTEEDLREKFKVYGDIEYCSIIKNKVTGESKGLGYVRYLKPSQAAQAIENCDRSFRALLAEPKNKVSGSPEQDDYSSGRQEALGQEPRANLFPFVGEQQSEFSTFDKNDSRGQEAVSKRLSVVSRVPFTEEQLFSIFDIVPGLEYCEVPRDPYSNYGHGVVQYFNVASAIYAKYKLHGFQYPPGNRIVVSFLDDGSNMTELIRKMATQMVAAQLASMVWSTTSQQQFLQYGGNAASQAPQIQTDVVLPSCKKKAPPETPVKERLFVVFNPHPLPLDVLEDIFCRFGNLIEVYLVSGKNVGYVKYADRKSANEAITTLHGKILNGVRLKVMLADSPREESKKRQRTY

PB2 524-540 peptide of influenza virus A/New York/348/2003 (H1N1)
IFN-γ ELISpot at 10 µg/ml peptide, splenocytes of immunized HLA transgenic mice [1]: 151
lowest concentration of peptide giving positive ELISpot response [1]: 0.1 µg/mL

PB2 500-516 peptide of influenza virus A/New York/348/2003 (H1N1)
IFN-γ ELISpot at 10 µg/ml peptide, splenocytes of immunized HLA transgenic mice [2]: 184
lowest concentration of peptide giving positive ELISpot response [2]: 0.1 µg/mL

NP 133-149 peptide of influenza virus A/New York/348/2003 (H1N1)
IFN-γ ELISpot at 10 µg/ml peptide, splenocytes of immunized HLA transgenic mice [1]: 238
lowest concentration of peptide giving positive ELISpot response [1]: 0.1 µg/mL

PB1 560-576 peptide of influenza virus A/New York/348/2003 (H1N1)
IFN-γ ELISpot at 10 µg/ml peptide, splenocytes of immunized HLA transgenic mice [1]: 194
lowest concentration of peptide giving positive ELISpot response [1]: 0.1 µg/mL

PB1 525-541 peptide of influenza virus A/New York/348/2003 (H1N1)
IFN-γ ELISpot at 10 µg/ml peptide, splenocytes of immunized HLA transgenic mice [1]: 159
lowest concentration of peptide giving positive ELISpot response [1]: 0.1 µg/mL

PB1 352-368 peptide of influenza virus A/New York/348/2003 (H1N1)
IFN-γ ELISpot at 10 µg/ml peptide, splenocytes of immunized HLA transgenic mice [1]: 52
lowest concentration of peptide giving positive ELISpot response [1]: 1 µg/mL

NP 402-418 peptide of influenza virus A/New York/348/2003 (H1N1)
IFN-γ ELISpot at 10 µg/ml peptide, splenocytes of immunized HLA transgenic mice [1]: 207
lowest concentration of peptide giving positive ELISpot response [1]: 0.1 µg/mL

PB1 554-570 peptide of influenza virus A/New York/348/2003 (H1N1)
IFN-γ ELISpot at 10 µg/ml peptide, splenocytes of immunized HLA transgenic mice [1]: 109
lowest concentration of peptide giving positive ELISpot response [1]: 1 µg/mL

PB2 630-646 peptide of influenza virus A/New York/348/2003 (H1N1)
IFN-γ ELISpot at 10 µg/ml peptide, splenocytes of immunized HLA transgenic mice [1]: 104
lowest concentration of peptide giving positive ELISpot response [1]: 0.1 µg/mL

PB1 465-481 peptide of influenza virus A/New York/348/2003 (H1N1)
IFN-γ ELISpot at 10 µg/ml peptide, splenocytes of immunized HLA transgenic mice [1]: 231
lowest concentration of peptide giving positive ELISpot response [1]: 1 µg/mL

PB1 519-535 peptide of influenza virus A/New York/348/2003 (H1N1)
IFN-γ ELISpot at 10 µg/ml peptide, splenocytes of immunized HLA transgenic mice [1]: 75
lowest concentration of peptide giving positive ELISpot response [1]: 0.1 µg/mL

PB1 328-344 peptide of influenza virus A/New York/348/2003 (H1N1)
IFN-γ ELISpot at 10 µg/ml peptide, splenocytes of immunized HLA transgenic mice [2]: 60
lowest concentration of peptide giving positive ELISpot response [2]: 10 µg/mL

NP 408-424 peptide of influenza virus A/New York/348/2003 (H1N1)
IFN-γ ELISpot at 10 µg/ml peptide, splenocytes of immunized HLA transgenic mice [1]: 110
lowest concentration of peptide giving positive ELISpot response [1]: 1 µg/mL

PB1 358-374 peptide of influenza virus A/New York/348/2003 (H1N1)
IFN-γ ELISpot at 10 µg/ml peptide, splenocytes of immunized HLA transgenic mice [1]: 84
lowest concentration of peptide giving positive ELISpot response [1]: 0.1 µg/mL

M1 169-185 peptide of influenza virus A/New York/348/2003 (H1N1)
IFN-γ ELISpot at 10 µg/ml peptide, splenocytes of immunized HLA transgenic mice [1]: 56
lowest concentration of peptide giving positive ELISpot response [1]: 0.1 µg/mL

PB2 548-564 peptide of influenza virus A/New York/348/2003 (H1N1)
IFN-γ ELISpot at 10 µg/ml peptide, splenocytes of immunized HLA transgenic mice [1]: 96
